Peptide text beside a SMILES is read from it. * marks the point of attachment. Cbz = O=C(OCc1ccccc1)*

Test [1] deals with ITGB3 promoter in HCC827 cells. The note with it: resuming erlotinib treatment after erlotinib holiday.
The subject of test [2] is Slug protein and pY416 SFK in MCF10A cells. Put plainly: Immunoblots of MCF10A cells stimulated with TGF-b2 and treated with inhibitors or antibody. The format is cell-based, human. The conditions noted are these: for Slug protein levels: 10 mM MG132, 5 hr prior to lysis. The protocol: FIGS. 21F-G illustrate Immunoblots of MCF10A cells stimulated with TGF-b2 or vehicle control and probed for the indicated proteins. FIG. 21F: Cells were transfected with control (Ctrl) or b3 siRNA and additionally treated with vehicle or proteasome inhibitor (MG132) for 5 hr prior to lysis. FIG. 21G: Cells were treated with 100 nM Src inhibitor (dasatinib) for the indicated length of time prior to lysis. FIG. 21F and FIG. 21G: Data shown are representative of three independent experiments.
Indeed, Slug protein levels are highly regulated through degradation by the proteasome (Kim et al. 2012; Wu et al., 2012). […] Thus, it appears that TGF-β2-stimulated expression of a αvβ3 mediates SFK activation resulting in enhanced Slug protein stability.
(§1) For experiments with MCF10A and HMECs, TGF-b2 stimulations were performed with 5 ng/ml TGF-b2 (PeproTech) or 0.1% BSA/PBS (vehicle) for 48 hr prior to lysis. In some experiments, […] of the anti-αvβ3 function-blocking antibody LM609 (Millipore) was added to cells at the same time as TGF-b2 or vehicle addition. For the proteasome inhibitor experiments, 10 mM MG132 (Sigma-Aldrich) or DMSO (vehicle) was added to transfected MCF10A cells 5 hr prior to lysis. Treatment of MCF10A cells with the SFK inhibitor dasatinib (ChemieTek) or DMSO (vehicle) was performed with 100 nM dasatinib for the indicated times prior to harvesting lysates.
(In western blotting, separated proteins are transferred to a membrane and probed.)

Test [3] deals with β3 expression in MaSCs/basal cells. Put plainly: β3 expression in K14+SMA+ cells from virgin WT mammary cells stimulated with growth factors (immunofluorescence). The format is cell-based, mouse. The conditions noted are these: cells from virgin WT mice; relative to vehicle-treated cells; TGF-b2 5 ng/ml, TGF-b1 5 ng/ml, RANKL 50 ng/ml, 48 hr. From the text:
(§2) To examine the ability of these factors to increase β3 expression, we stimulated cells from virgin WT mice and measured β3 expression in MaSCs/basal cells, defined by expression of K14 and SMA.
FIG. 20A illustrates representative immunofluorescent images of β3 expression in K14+SMA+ cells (arrows) from pooled virgin WT mammary cells stimulated with the indicated growth factors. Nuclei are stained blue in all panels. Scale bars, […]. Data shown are representative of three independent experiments.
(§3) Cells from digested mammary glands were seeded at 40,000 cells per well onto MEFs (for colony-formation assays) or 8-well chamber slides (Lab-Tek) coated with 2% Matrigel/DMEM. At the time of seeding, cells were suspended in complete DMEM supplemented with vehicle (0.1% BSA/PBS), RANKL (50 ng/ml), TGF-b1 (5 ng/ml), or TGF-b2 (5 ng/ml) (PeproTech). Cells were fixed with 2% paraformaldehyde/PBS after 48 hr (chamber slides) or 5 days (colonies) for immunofluorescent staining.

The test system of test [4] is MaSC/basal and luminal colonies from virgin mammary cells. Put plainly: Mammary colony formation on irradiated MEFs with growth factors. The conditions noted are these: for total colony number: virgin mammary cells on irradiated MEFs. The format is cell-based, mouse. As to the method: This effect was reduced in mammary cells from β3KO mice (FIG. 20H), similar to our results from pregnant b3KO mice (FIG. 19C).
For colony formation on irradiated MEFs, 100,000 MEFs were seeded into 6-well dishes for 48 hr prior to adding 40,000 cells from digested mammary glands and grown in complete Dulbecco's modified Eagle's medium (DMEM). Colonies formed over 5-6 days before fixing and staining with either 0.1% crystal violet/20% methanol/PBS or 2% paraformaldehyde/PBS for immunofluorescent staining and counting colonies. For Matrigel colonies, 5,000 fluorescence-activated cell sorting (FACS) mammary gland cells were suspended in […] growth factor-reduced Matrigel (BD PharMingen) and grown 14 days in serum-free mammary epithelial cell medium-basal medium (Cambrex) supplemented with B27 supplement, 20 ng/ml epidermal growth factor, 20 ng/ml […] fibroblast growth factor, […], 100 U/ml penicillin, and […] streptomycin. Total colonies per well were counted from each of the four replicates per experiment.
as §3

In test [5] the test system is nuclear Slug in K14+SMA+ MaSCs/basal cells. In words: Slug expression in K14+SMA+ mammary cells stimulated with TGF-β2. The format is cell-based, mouse.
Description: Slug was recently characterized as a determinant of the MaSC fate in the virgin mammary gland (Guo et al., 2012) and is expressed during early to midpregnancy but is negatively regulated by Elf5 during late stage pregnancy/lactation, allowing for alveolar maturation (Chakrabarti et al., 2012). Therefore, we considered whether β3 was required for TGF-β2-mediated Slug expression in MaSCs/basal cells.
To determine the potential mechanism by which αvβ3 regulates Slug, we considered whether αvβ3 signaling may be required by assessing whether the b3DC mutant affects Slug expression. […] The β3DC mutant has previously been characterized as defective in recruiting and activating Src family kinases (SFKs) (Ablooglu et al., 2009; Arias-Salgado et al., 2003; Desgrosellier et al., 2009).
FIG. 21B graphically illustrates quantitation of the percentage of Slug+K14+SMA+ cells. p=0.0439 (vehicle versus TGF-b2 inWT cells) and p=0.0342 (WT versus b3KO cells stimulated with TGF-b2). For FIG. 21A and FIG. 21B: WT, n=3, b3KO, n=3.
FIG. 21E graphically illustrates quantitation of the percentage of Slug-expressing K14+SMA+ cells from virgin WT and b3DC mammary cells stimulated with vehicle or TGF-b2. WT, n=2, b3DC, n=2. p=0.029 (vehicle versus TGF-b2 in WT cells) and p=0.032 (WT versus b3DC cells stimulated with TGF-b2).
as §3

The subject of test [6] is β3 expression in human mammary epithelial cells (HMECs), MCF10As. Put plainly: Immunoblot for β3 in MCF10As and HMECs stimulated with TGF-b2. The format is cell-based. The conditions noted are these: HMECs including MCF10As; 5 ng/ml TGF-b2, 48 hr. As to the method: FIG. 20D illustrates an image of an Immunoblot for β3 and b-actin (loading control) in MCF10As and HMECs stimulated with TGF-b2 or vehicle control. Data shown are representative of three independent experiments.
as §1

In test [7] the test system is β3 mRNA in CD29hi MaSCs/basal cells and CD29lo luminal cells. Put plainly: qPCR of β3 mRNA in vehicle versus TGF-β2-stimulated CD29hi and CD29lo cells. The format is cell-based, mouse.
Description: as §2
FIG. 20B and FIG. 20C graphically illustrate qPCR analysis comparing the relative levels of β3 mRNA in vehicle versus TGF-β2-stimulated CD29hi (FIG. 20B) and CD29lo (FIG. 20C) cells from WT virgin mice. n=2 independent experiments (pooled samples).
For FIG. 20B, FIG. 20C, and FIG. 20F: each sample was run in triplicate, and 18S rRNA (FIG. 20B and FIG. 20C) or b-actin (FIG. 20F) was used as loading controls.
In general terms: Real-time PCR tracks product formation cycle by cycle.

The subject of the next test is β3 promoter. In words: β3 promoter luciferase reporter in MCF10A cells. The format is cell-based, human. The conditions noted are these: reporter with proximal 1,300 bp of the β3 promoter. The text has this:
FIG. 20E graphically illustrates a Histogram displaying the relative luciferase activity in MCF10A cells transfected with an empty vector (Ctrl) or a luciferase reporter plasmid containing the proximal region of the β3 promoter (β3 prom-Luc) and stimulated with vehicle or TGF-β2. n=3 independent experiments. p=0.043.
Background: A reporter such as luciferase makes a cellular process visible.

[8] abbreviates: virgin WT mammary cells on irradiated MEFs, compared to vehicle.

For the molecule `C#Cc1cccc(Nc2ncnc3cc(OCCOC)c(OCCOC)cc23)c1` [erlotinib], the “expression of β3 and stem cell genes OCT4 and Nanog” value in test [1] is recorded as “re-expression”.

In the case of `CC(C)C[C@@H](C=O)NC(=O)[C@H](CC(C)C)NC(=O)[C@H](CC(C)C)NC(=O)OCc1ccccc1` [MG132] (Cbz-Leu-Leu-Leu-aldehyde), the Slug protein levels entry in test [2] (b3 knockdown MCF10A cells) is given as “restore Slug protein levels to normal”; in test [2] (control MCF10A cells), “little effect”.

Turning to “TGF-β1: transforming growth factor β (TGF-β) family member (PeproTech)”, the “β3 expression in MaSCs/basal cells (K14 and SMA expressing)” value (“β3 expression in MaSCs/basal cells” below) in test [3] is recorded as “not”. For the same molecule, the total colony number result in test [4] is listed as “severe growth inhibitory effect”.

B1: RANKL: receptor activator of nuclear factor kB ligand (protein, UniProt O14788 140-317, looked up)
Tumor necrosis factor ligand …: IRAEKAMVDGSWLDLAKRSKLEAQPFAHLTINATDIPSGSHKVSLSSWYHDRGWAKISNMTFSNGKLIVNQDGFYYLYANICFRHHETSGDLATEYLQLMVYVTKTSIKIPSSHTLMKGGSTKYWSGNSEFHFYSINVGGFFKLRSGEEISIEVSNPSLLDPDQDATYFGAFKVRDID
For the molecule B1, in test [3], the “β3 expression in MaSCs/basal cells” value is on record as “not”. In test [4], the total colony number entry is reported as “potent driver of colony formation”.

B2: TGF-β2: Transforming growth factor β2, growth factor released during pregnancy (PeproTech) (protein, UniProt P61812 303-414, looked up)
Transforming growth factor …: ALDAAYCFRNVQDNCCLRPLYIDFKRDLGWKWIHEPKGYNANFCAGACPYLWSSDTQHSRVLSLYNTINPEASASPCCVSQDLEPLTILYYIGKTPKIEQLSNMIVKSCKCS
Consider B2, for which the “Slug expression in K14+SMA+ cells” value is reported as “no increase” in test [5] (cells from β3DC knockin mice) and “failed to increase Slug” in test [5] (β3KO cells). In test [5] (virgin WT mammary cells, compared to vehicle control), the “nuclear Slug expression in K14+SMA+ cells” value is “induced nuclear Slug expression”. Also, in test [3], the “β3 expression in MaSCs/basal cells” value is “stimulated β3 expression”. In addition, the “frequency of bipotent, MaSC-like colonies” value in test [4] (setting [8]) is listed as “increased”. Besides, the luminal colonies result in test [4] (setting [8]) is reported as “reciprocal decrease”. Further, the total colony number result in test [4] is recorded as “did not affect”. The “β3 expression (immunoblot)” value in test [6] is “potent driver”. Also, the “β3 mRNA expression” value is on record as “drive β3 mRNA expression” in test [7] (CD29hi MaSCs/basal cells from WT virgin mice) and “little effect” in test [7] (CD29lo luminal cells from the same mice). Besides, the “β3 promoter activity (relative luciferase activity)” value in the test with β3 promoter was “directly activating the β3 promoter”. Also, the “expression of EMT markers such as Slug, E-cadherin, and Vimentin” value in test [2] (MCF10A cells, TGF-β2 stimulation) is “drives changes”.

Values taken from patent US11021755B2, “Compositions and methods for identifying anti cancer, anti-metastatic and anti-stress agents” (THE REGENTS OF THE UNIVERSITY OF CALIFORNIA, priority 2015, dated 2021).
